PMC4070737 (Cytoskeleton (Hoboken, N.J.), 2013)

Biological target: the molecule itself
Assay: AUC

B1: EB1_(248), activated fragment of human EB1 lacking the autoinhibitory tail domain (domain or fragment, UniProt Q15691 1-248, looked up)
chain: MAVNVYSTSVTSDNLSRHDMLAWINESLQLNLTKIEQLCSGAAYCQFMDMLFPGSIALKKVKFQAKLEHEYIQNFKILQAGFKRMGVDKIIPVDKLVKGKFQDNFEFVQWFKKFFDANYDGKDYDPVAARQGQETAVAPSLVAPALNKPKKPLTSSSAAPQRPISTQRTAAAPKAGPGVVRKNPGVGNGDDEAAELMQQVNVLKLTVEDLEKERDFYFGKLRNIELICQENEGENDPVLQRIVDILYA
stoichiometry N: 2
